# From patent US20240270846A1 (published 2024)
# B1: CE115HA000 N54D one-arm antibody (antibody, human IgG1, kappa, L234A L235A, N297A, name in Kabat numbering)
# heavy: QVQLVESGGGVVQPGRSLRLSCAASGFTFSNAWMHWVRQAPGKGLEWVAQIKAKSNDYATYYAESVKGRFTISRDDSKNSLYLQMNSLKTEDTAVYYCRYVHYGAYYGVDAWGQGTTVTVSSASTKGPSVFPLAPSSKSTSGGTAALGCLVKDYFPEPVTVSWNSGALTSGVHTFPAVLQSSGLYSLSSVVTVPSSSLGTQTYICNVNHKPSNTKVDKKVEPKSCDKTHTCPPCPAPEAAGGPSVFLFPPKPKDTLMISRTPEVTCVVVDVSHEDPEVKFNWYVDGVEVHNAKTKPREEQYASTYRVVSVLTVLHQDWLNGKEYKCKVSNKALPAPIEKTISKAKGQPREPQVYTLPPSRCELTKNQVSLSCAVKGFYPSDIAVEWESNGQPENNYKTTPPVLDSDGSFFLVSKLTVDKSRWQQGNVFSCSVMHEALHNHYTQKSLSLSPDYKDDDDK
# chain: EPKSSDKTHTCPPCPAPELLGGPSVFLFPPKPKDTLMISRTPEVTCVVVDVSHEDPEVKFNWYVDGVEVHNAKTKPREEQYNSTYRVVSVLTVLHQDWLNGKEYKCKVSNKALPAPIEKTISKAKGQPREPQVCTLPPSRDELTKNQVSLWCLVKGFYPSDIAVEWESNGQPENNYKTTPPVLDSDGSFFLYSKLTVDKSRWQQGNVFSCSVMHEALHNRYTQKSLSLSP
# light: DIVMTQSPLSLPVTPGEPASISCRSSQSLVHSNRNTYLHWYQQKPGQAPRLLIYKVSNRFSGVPDRFSGSGSGTDFTLKISRVEAEDVGVYYCGQGTQVPYTFGQGTKLEIKRTVAAPSVFIFPPSDEQLKSGTASVVCLLNNFYPREAKVQWKVDNALQSGNSQESVTEQDSKDSTYSLSSTLTLSKADYEKHKVYACEVTHQGLSSPVTKSFNRGEC
# notes: one-arm antibody
# B2: CE115HA000 Q50A one-arm antibody (antibody, human IgG1, kappa, L234A L235A, N297A, name in Kabat numbering)
# heavy: QVQLVESGGGVVQPGRSLRLSCAASGFTFSNAWMHWVRQAPGKGLEWVAAIKAKSNNYATYYAESVKGRFTISRDDSKNSLYLQMNSLKTEDTAVYYCRYVHYGAYYGVDAWGQGTTVTVSSASTKGPSVFPLAPSSKSTSGGTAALGCLVKDYFPEPVTVSWNSGALTSGVHTFPAVLQSSGLYSLSSVVTVPSSSLGTQTYICNVNHKPSNTKVDKKVEPKSCDKTHTCPPCPAPEAAGGPSVFLFPPKPKDTLMISRTPEVTCVVVDVSHEDPEVKFNWYVDGVEVHNAKTKPREEQYASTYRVVSVLTVLHQDWLNGKEYKCKVSNKALPAPIEKTISKAKGQPREPQVYTLPPSRCELTKNQVSLSCAVKGFYPSDIAVEWESNGQPENNYKTTPPVLDSDGSFFLVSKLTVDKSRWQQGNVFSCSVMHEALHNHYTQKSLSLSPDYKDDDDK
# chain: EPKSSDKTHTCPPCPAPELLGGPSVFLFPPKPKDTLMISRTPEVTCVVVDVSHEDPEVKFNWYVDGVEVHNAKTKPREEQYNSTYRVVSVLTVLHQDWLNGKEYKCKVSNKALPAPIEKTISKAKGQPREPQVCTLPPSRDELTKNQVSLWCLVKGFYPSDIAVEWESNGQPENNYKTTPPVLDSDGSFFLYSKLTVDKSRWQQGNVFSCSVMHEALHNRYTQKSLSLSP
# light: DIVMTQSPLSLPVTPGEPASISCRSSQSLVHSNRNTYLHWYQQKPGQAPRLLIYKVSNRFSGVPDRFSGSGSGTDFTLKISRVEAEDVGVYYCGQGTQVPYTFGQGTKLEIKRTVAAPSVFIFPPSDEQLKSGTASVVCLLNNFYPREAKVQWKVDNALQSGNSQESVTEQDSKDSTYSLSSTLTLSKADYEKHKVYACEVTHQGLSSPVTKSFNRGEC
# notes: one-arm antibody
# B3: CE115HA000 N54K one-arm antibody (antibody, human IgG1, kappa, L234A L235A, N297A, name in Kabat numbering)
# heavy: QVQLVESGGGVVQPGRSLRLSCAASGFTFSNAWMHWVRQAPGKGLEWVAQIKAKSNKYATYYAESVKGRFTISRDDSKNSLYLQMNSLKTEDTAVYYCRYVHYGAYYGVDAWGQGTTVTVSSASTKGPSVFPLAPSSKSTSGGTAALGCLVKDYFPEPVTVSWNSGALTSGVHTFPAVLQSSGLYSLSSVVTVPSSSLGTQTYICNVNHKPSNTKVDKKVEPKSCDKTHTCPPCPAPEAAGGPSVFLFPPKPKDTLMISRTPEVTCVVVDVSHEDPEVKFNWYVDGVEVHNAKTKPREEQYASTYRVVSVLTVLHQDWLNGKEYKCKVSNKALPAPIEKTISKAKGQPREPQVYTLPPSRCELTKNQVSLSCAVKGFYPSDIAVEWESNGQPENNYKTTPPVLDSDGSFFLVSKLTVDKSRWQQGNVFSCSVMHEALHNHYTQKSLSLSPDYKDDDDK
# chain: EPKSSDKTHTCPPCPAPELLGGPSVFLFPPKPKDTLMISRTPEVTCVVVDVSHEDPEVKFNWYVDGVEVHNAKTKPREEQYNSTYRVVSVLTVLHQDWLNGKEYKCKVSNKALPAPIEKTISKAKGQPREPQVCTLPPSRDELTKNQVSLWCLVKGFYPSDIAVEWESNGQPENNYKTTPPVLDSDGSFFLYSKLTVDKSRWQQGNVFSCSVMHEALHNRYTQKSLSLSP
# light: DIVMTQSPLSLPVTPGEPASISCRSSQSLVHSNRNTYLHWYQQKPGQAPRLLIYKVSNRFSGVPDRFSGSGSGTDFTLKISRVEAEDVGVYYCGQGTQVPYTFGQGTKLEIKRTVAAPSVFIFPPSDEQLKSGTASVVCLLNNFYPREAKVQWKVDNALQSGNSQESVTEQDSKDSTYSLSSTLTLSKADYEKHKVYACEVTHQGLSSPVTKSFNRGEC
# notes: one-arm antibody
# B4: CE115HA000 Q50D one-arm antibody (antibody, human IgG1, kappa, L234A L235A, N297A, name in Kabat numbering)
# heavy: QVQLVESGGGVVQPGRSLRLSCAASGFTFSNAWMHWVRQAPGKGLEWVADIKAKSNNYATYYAESVKGRFTISRDDSKNSLYLQMNSLKTEDTAVYYCRYVHYGAYYGVDAWGQGTTVTVSSASTKGPSVFPLAPSSKSTSGGTAALGCLVKDYFPEPVTVSWNSGALTSGVHTFPAVLQSSGLYSLSSVVTVPSSSLGTQTYICNVNHKPSNTKVDKKVEPKSCDKTHTCPPCPAPEAAGGPSVFLFPPKPKDTLMISRTPEVTCVVVDVSHEDPEVKFNWYVDGVEVHNAKTKPREEQYASTYRVVSVLTVLHQDWLNGKEYKCKVSNKALPAPIEKTISKAKGQPREPQVYTLPPSRCELTKNQVSLSCAVKGFYPSDIAVEWESNGQPENNYKTTPPVLDSDGSFFLVSKLTVDKSRWQQGNVFSCSVMHEALHNHYTQKSLSLSPDYKDDDDK
# chain: EPKSSDKTHTCPPCPAPELLGGPSVFLFPPKPKDTLMISRTPEVTCVVVDVSHEDPEVKFNWYVDGVEVHNAKTKPREEQYNSTYRVVSVLTVLHQDWLNGKEYKCKVSNKALPAPIEKTISKAKGQPREPQVCTLPPSRDELTKNQVSLWCLVKGFYPSDIAVEWESNGQPENNYKTTPPVLDSDGSFFLYSKLTVDKSRWQQGNVFSCSVMHEALHNRYTQKSLSLSP
# light: DIVMTQSPLSLPVTPGEPASISCRSSQSLVHSNRNTYLHWYQQKPGQAPRLLIYKVSNRFSGVPDRFSGSGSGTDFTLKISRVEAEDVGVYYCGQGTQVPYTFGQGTKLEIKRTVAAPSVFIFPPSDEQLKSGTASVVCLLNNFYPREAKVQWKVDNALQSGNSQESVTEQDSKDSTYSLSSTLTLSKADYEKHKVYACEVTHQGLSSPVTKSFNRGEC
# notes: one-arm antibody
# B5: CE115HA000 N54G one-arm antibody (antibody, human IgG1, kappa, L234A L235A, N297A, name in Kabat numbering)
# heavy: QVQLVESGGGVVQPGRSLRLSCAASGFTFSNAWMHWVRQAPGKGLEWVAQIKAKSNGYATYYAESVKGRFTISRDDSKNSLYLQMNSLKTEDTAVYYCRYVHYGAYYGVDAWGQGTTVTVSSASTKGPSVFPLAPSSKSTSGGTAALGCLVKDYFPEPVTVSWNSGALTSGVHTFPAVLQSSGLYSLSSVVTVPSSSLGTQTYICNVNHKPSNTKVDKKVEPKSCDKTHTCPPCPAPEAAGGPSVFLFPPKPKDTLMISRTPEVTCVVVDVSHEDPEVKFNWYVDGVEVHNAKTKPREEQYASTYRVVSVLTVLHQDWLNGKEYKCKVSNKALPAPIEKTISKAKGQPREPQVYTLPPSRCELTKNQVSLSCAVKGFYPSDIAVEWESNGQPENNYKTTPPVLDSDGSFFLVSKLTVDKSRWQQGNVFSCSVMHEALHNHYTQKSLSLSPDYKDDDDK
# chain: EPKSSDKTHTCPPCPAPELLGGPSVFLFPPKPKDTLMISRTPEVTCVVVDVSHEDPEVKFNWYVDGVEVHNAKTKPREEQYNSTYRVVSVLTVLHQDWLNGKEYKCKVSNKALPAPIEKTISKAKGQPREPQVCTLPPSRDELTKNQVSLWCLVKGFYPSDIAVEWESNGQPENNYKTTPPVLDSDGSFFLYSKLTVDKSRWQQGNVFSCSVMHEALHNRYTQKSLSLSP
# light: DIVMTQSPLSLPVTPGEPASISCRSSQSLVHSNRNTYLHWYQQKPGQAPRLLIYKVSNRFSGVPDRFSGSGSGTDFTLKISRVEAEDVGVYYCGQGTQVPYTFGQGTKLEIKRTVAAPSVFIFPPSDEQLKSGTASVVCLLNNFYPREAKVQWKVDNALQSGNSQESVTEQDSKDSTYSLSSTLTLSKADYEKHKVYACEVTHQGLSSPVTKSFNRGEC
# notes: one-arm antibody
# B6: CE115HA000 N54F one-arm antibody (antibody, human IgG1, kappa, L234A L235A, N297A, name in Kabat numbering)
# heavy: QVQLVESGGGVVQPGRSLRLSCAASGFTFSNAWMHWVRQAPGKGLEWVAQIKAKSNFYATYYAESVKGRFTISRDDSKNSLYLQMNSLKTEDTAVYYCRYVHYGAYYGVDAWGQGTTVTVSSASTKGPSVFPLAPSSKSTSGGTAALGCLVKDYFPEPVTVSWNSGALTSGVHTFPAVLQSSGLYSLSSVVTVPSSSLGTQTYICNVNHKPSNTKVDKKVEPKSCDKTHTCPPCPAPEAAGGPSVFLFPPKPKDTLMISRTPEVTCVVVDVSHEDPEVKFNWYVDGVEVHNAKTKPREEQYASTYRVVSVLTVLHQDWLNGKEYKCKVSNKALPAPIEKTISKAKGQPREPQVYTLPPSRCELTKNQVSLSCAVKGFYPSDIAVEWESNGQPENNYKTTPPVLDSDGSFFLVSKLTVDKSRWQQGNVFSCSVMHEALHNHYTQKSLSLSPDYKDDDDK
# chain: EPKSSDKTHTCPPCPAPELLGGPSVFLFPPKPKDTLMISRTPEVTCVVVDVSHEDPEVKFNWYVDGVEVHNAKTKPREEQYNSTYRVVSVLTVLHQDWLNGKEYKCKVSNKALPAPIEKTISKAKGQPREPQVCTLPPSRDELTKNQVSLWCLVKGFYPSDIAVEWESNGQPENNYKTTPPVLDSDGSFFLYSKLTVDKSRWQQGNVFSCSVMHEALHNRYTQKSLSLSP
# light: DIVMTQSPLSLPVTPGEPASISCRSSQSLVHSNRNTYLHWYQQKPGQAPRLLIYKVSNRFSGVPDRFSGSGSGTDFTLKISRVEAEDVGVYYCGQGTQVPYTFGQGTKLEIKRTVAAPSVFIFPPSDEQLKSGTASVVCLLNNFYPREAKVQWKVDNALQSGNSQESVTEQDSKDSTYSLSSTLTLSKADYEKHKVYACEVTHQGLSSPVTKSFNRGEC
# notes: one-arm antibody
# Molecular target: T1, CD3 epsilon homodimer protein (UniProt P07766 23-126)
# T1 construct: also called CD3 (CD3 epsilon)
# T1 sequence (P07766 23-126): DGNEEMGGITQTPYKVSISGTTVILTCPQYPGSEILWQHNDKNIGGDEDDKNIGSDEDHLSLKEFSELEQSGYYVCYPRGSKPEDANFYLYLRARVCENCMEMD
# Test: SPR Biacore T200, antibody over immobilised CD3e homodimer;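 also: CD3 epsilon homodimer amine-coupled on a CM4 chip, run at 25 °C in HBS-EP+, Z = bound amount of each single-residue H chain variant over that of the parent antibody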
row,Binder,ratio of amounts bound (Z=Y/X vs CE115HA000)
1,B1,0.62
2,B2,0.24
3,B3,1.2
4,B4,0.27
5,B5,0.98
6,B6,1.12
